# Assay results: article PMC6328613
# Key:
# MBP-Scyl1 [1] = biological target: MBP-Scyl1 (UniProt Q96KG9); experiment: SPR; ProteOn XPR36, GLH chip; cross-linked anti-MBP antibody, MBP-Scyl1 captured (3000 RU), GST-GORAB variants as analyte at 30 nM, 100 µL/min, 120 s association, 600 s dissociation; 150 mM NaCl, 10 mM HEPES, 0.02% Tween-20, pH 7.4
# MBP-Scyl1 [2] = biological target: MBP-Scyl1 (UniProt Q96KG9)
# Sequence of UniProt Q96KG9 (Q96KG9 whole entry): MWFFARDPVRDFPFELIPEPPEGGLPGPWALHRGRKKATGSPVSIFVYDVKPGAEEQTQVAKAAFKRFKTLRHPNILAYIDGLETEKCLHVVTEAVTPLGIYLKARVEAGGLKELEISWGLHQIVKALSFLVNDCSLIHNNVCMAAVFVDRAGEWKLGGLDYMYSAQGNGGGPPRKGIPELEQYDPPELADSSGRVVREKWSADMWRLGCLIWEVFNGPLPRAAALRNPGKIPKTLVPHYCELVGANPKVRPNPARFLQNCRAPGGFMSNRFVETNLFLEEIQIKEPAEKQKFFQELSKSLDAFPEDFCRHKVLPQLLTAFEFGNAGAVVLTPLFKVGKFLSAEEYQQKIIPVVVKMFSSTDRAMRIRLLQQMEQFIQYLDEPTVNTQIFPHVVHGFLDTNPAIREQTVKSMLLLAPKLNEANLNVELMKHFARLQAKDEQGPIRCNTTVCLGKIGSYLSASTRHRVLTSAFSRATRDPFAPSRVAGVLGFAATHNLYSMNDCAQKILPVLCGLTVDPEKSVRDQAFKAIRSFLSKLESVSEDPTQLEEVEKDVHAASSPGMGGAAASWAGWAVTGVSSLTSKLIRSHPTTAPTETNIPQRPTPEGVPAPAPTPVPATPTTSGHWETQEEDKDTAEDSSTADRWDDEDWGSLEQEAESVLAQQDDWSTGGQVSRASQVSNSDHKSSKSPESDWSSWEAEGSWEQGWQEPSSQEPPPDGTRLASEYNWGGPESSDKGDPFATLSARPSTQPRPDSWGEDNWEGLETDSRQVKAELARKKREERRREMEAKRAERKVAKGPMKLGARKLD
Kd (MBP-Scyl1 [1]) [nM],"recruitment of coatomer (δ-COP, ε-COP) to liposomes in the presence of myr-Arf1, with MBP-Scyl1 against MBP-IPIP27A (MBP-Scyl1 [2]) [fold]",Substance
0.52,,GST-GORAB (natural protein)
0.52,,GST-GORAB K190del (natural protein)
,2,recombinant mouse coatomer isotype γ2ζ1 (from UniProt Q9QXK3 1-871; P61924 1-177; Q5XJY5 1-511; O89079 1-308; O55029 1-905) (complex)
